Assay [1] addresses Met-Gly-SplF-His6 (S. aureus strain 8325-4) (UniProt Q2FXC8).
For assay [2], the target named is T1, His6-SplF (S. aureus strain 8325-4) (UniProt Q2FXC8).
T1 sequence: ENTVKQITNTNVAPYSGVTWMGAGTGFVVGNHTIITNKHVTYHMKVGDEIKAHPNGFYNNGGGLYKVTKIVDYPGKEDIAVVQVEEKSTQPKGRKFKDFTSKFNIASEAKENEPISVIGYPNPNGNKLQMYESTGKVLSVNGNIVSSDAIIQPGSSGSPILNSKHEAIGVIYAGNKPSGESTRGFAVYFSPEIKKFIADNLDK

The target in assay [3] is T2, SplF-His6 (S. aureus strain 8325-4) (UniProt Q2FXC8).
T2 sequence: T1 sequence

Here are results for one substance from article PMC7926377.

As to ABZ-Tyr-Met-Leu-Ser-ANB-NH2 (peptide), the KM of ABZ-Tyr-Met-Leu-Ser-ANB-NH2 hydrolysis (Michaelis-Menten fit, PBS, 37 °C) was 18.2 µM in assay [1], 21.4 µM in assay [2] and 30.8 µM in assay [3].
